Reference: patent US20180171024A1

Experiments:
[1] = target: HLA-A2 on cells (tumor cell lines, normal primary cells, PBMCs) (human); assay: flow cytometry, Caco2 cells
[2] = target: HLA-A2 on cells (tumor cell lines, normal primary cells, PBMCs) (human); assay: flow cytometry, SW620 cells
[3] = target: HLA-A2 on cells (tumor cell lines, normal primary cells, PBMCs) (human); assay: flow cytometry, DG-75 cells, 10 µg/ml
[4] = target: HLA-A2 on cells (tumor cell lines, normal primary cells, PBMCs) (human); assay: flow cytometry, H2228 cells, 10 µg/ml
[5] = target: HLA-A2 on cells (tumor cell lines, normal primary cells, PBMCs) (human); assay: flow cytometry, HepG2 cells
[6] = target: HLA-A2 on cells (tumor cell lines, normal primary cells, PBMCs) (human); assay: flow cytometry, fibroblasts Fib, 10 µg/ml
[7] = target: HLA-A2 on cells (tumor cell lines, normal primary cells, PBMCs) (human); assay: flow cytometry, SKMEL5 cells
[8] = target: HLA-A2/CMV on T2 cells (human); assay: flow cytometry, T2 cells loaded with CMV peptide
[9] = target: HLA-A2/Gag on T2 cells (human); assay: flow cytometry, T2 cells loaded with GAG peptide
[10] = target: HLA-A2/DUSP5 on T2 cells (human); assay: flow cytometry, T2 cells loaded with DUSP5 peptide
[11] = target: HLA-A2 on cells (tumor cell lines, normal primary cells, PBMCs) (human); assay: flow cytometry, IM-9 cells, 10 µg/ml
[12] = target: HLA-A2/ARHGAP on T2 cells (human); assay: flow cytometry, T2 cells loaded with ARHGAP peptide
[13] = target: HLA-A2 on cells (tumor cell lines, normal primary cells, PBMCs) (human); assay: flow cytometry, SK-Mel5 melanoma cells
[14] = target: HLA-A2 on cells (tumor cell lines, normal primary cells, PBMCs) (human); assay: flow cytometry, WM-266-4 melanoma cells
[15] = target: HLA-A2/WT1 126-134 complex on T2 cells (human); assay: flow cytometry, T2 cells loaded with WT1 [..], 10 µg/ml
[16] = target: HLA-A2 on cells (tumor cell lines, normal primary cells, PBMCs) (human); assay: flow cytometry, astrocytes 1840, 10 µg/ml
[17] = target: HLA-A2 on HLA-A2+/WT1+ BV173 cells (WT1 mRNA positive; WT1 126-134 peptide not detected by mass spectrometry of eluted HLA peptides); assay: flow cytometry on BV173 cells (WT1 mRNA +)
[18] = target: HLA-A2 on cells (tumor cell lines, normal primary cells, PBMCs) (human); assay: flow cytometry, PANC-1 pancreatic carcinoma cells, 10 µg/ml
[19] = target: HLA-A2 on cells (tumor cell lines, normal primary cells, PBMCs) (human); assay: flow cytometry, hepatocytes #5200-1, 10 µg/ml
[20] = target: HLA-A2 on cells (tumor cell lines, normal primary cells, PBMCs) (human); assay: flow cytometry, A375 melanoma cells, 10 µg/ml
[21] = target: HLA-A2/TyrD-S14 on T2 cells (human); assay: flow cytometry, T2 cells loaded with TyrD S14 [..], 10 µg/ml
[22] = target: HLA-A2/TyrD-S15 on T2 cells (human); assay: flow cytometry, T2 cells loaded with TyrD S15 [..], 10 µg/ml
[23] = target: HLA-A2/GP9 on T2 cells (human); assay: flow cytometry, T2 cells loaded with GP9 peptide
[24] = target: HLA-A2/WT1 126-134 complex on T2 cells (human); assay: flow cytometry, T2 cells loaded with WT1 peptide
[25] = target: HLA-A2/MART1(26) on T2 cells (human); assay: flow cytometry, T2 cells loaded with MART1 peptide
[26] = target: HLA-A2/Tyrosinase369-377 complex on cells (human); assay: flow cytometry, T2 cells loaded with 10^-4 M peptide
[27] = target: P68 … (Homo sapiens); assay: as above
[28] = target: HLA-A2/WT1-S13 on T2 cells (human); assay: flow cytometry, peptide-loaded T2 cells (10^-4-10^-5 M)
[29] = target: HLA-A2/WT1-S22 on T2 cells (human); assay: as above
[30] = target: HLA-A2 on cells (tumor cell lines, normal primary cells, PBMCs) (human); assay: flow cytometry, renal epithelial cells #4100-2, 10 µg/ml
[31] = target: HLA-A2/Tyrosinase369-377 complex on cells (human); assay: flow cytometry, T2 cells loaded with TyrD [..], 10 µg/ml
[32] = target: HLA-A2 on cells (tumor cell lines, normal primary cells, PBMCs) (human); assay: flow cytometry, colonic smooth muscle cells #2940, 10 µg/ml
[33] = target: HLA-A2/TyrD-S3 on T2 cells (human); assay: flow cytometry, T2 cells loaded with TyrD S3 [..], 10 µg/ml
[34] = target: HLA-A2/TyrD-S4 on T2 cells (human); assay: flow cytometry, T2 cells loaded with TyrD S4 [..], 10 µg/ml
[35] = target: HLA-A2/KIAA0355 on T2 cells (human); assay: flow cytometry, T2 cells loaded with KIAA0335 [..], 10 µg/ml
[36] = target: HLA-A2/TyrD-S10 on T2 cells (human); assay: flow cytometry, T2 cells loaded with TyrD S10 [..], 10 µg/ml
[37] = target: HLA-A2/TyrD-S12 on T2 cells (human); assay: flow cytometry, T2 cells loaded with TyrD S12 [..], 10 µg/ml
[38] = target: HLA-A2/WT1-S10 on T2 cells (human); assay: flow cytometry, peptide-loaded T2 cells (10^-4-10^-5 M), PE anti-mouse
[39] = target: HLA-A2/Tyrosinase369-377 complex on cells (human); assay: flow cytometry, T2 cells loaded with TyrD peptide ([..] printed under the label), 10 µg/ml

## BB7.2 (antibody)
[1]
  GeoMean: 123
[2]
  GeoMean: 369
[3]
  MFI: 700
[4]
  MFI: 210
[5]
  GeoMean: 154
[6]
  MFI: 481
[7]
  GeoMean: 281
[8]
  MFI: 2400
[9]
  MFI: 1840
[10]
  MFI: 2470
[11]
  MFI: 457
[12]
  MFI: 2580
[13]
  MFI: 76
[14]
  MFI: 64
[15]
  MFI relative to background: 1420
[16]
  MFI: 569
[17]
  MFI: 962
[18]
  MFI: 242
[19]
  MFI: 591
[20]
  MFI: 174
[21]
  MFI relative to background: 565
[22]
  MFI relative to background: 642
[23]
  MFI: 2470
[24]
  MFI: 2320
[25]
  MFI: 2500
[26]
  MFI: 471
[27]
  MFI: 542
[28]
  MFI: 296
[29]
  MFI: 376
[30]
  MFI: 1620
[31]
  MFI relative to background: 430
[32]
  MFI: 744
[33]
  MFI relative to background: 430
[34]
  MFI relative to background: 543
[35]
  MFI relative to background: 714
[36]
  MFI relative to background: 620
[37]
  MFI relative to background: 532
[38]
  MFI: 1350
[39]
  MFI relative to background: 848
